B1: #26: fully human anti-LILRB3 IgG, epitope bin 3; B3-26 VH SEQ ID NO: 353, VL SEQ ID NO: 407 (antibody, V domains shown)
VH: QVQMVESGGGLVKPGGSLRLSCAASGFTFSDHYLSWIRQAPGKGLEWVSYIDLSGSTVYYGDSVKGRFTISRDNARNSVYLQMNSLRAEDTAVYYCARGHYGLDVWGQGTMVTVSS
VL: NIQMTQSPSTLSASVGDRVTISCRASQSIGTWLAWYQQKPGKAPQLLIYKASSLHSGVPSRFSGSGSGTEFTLTISSLQPDDFATYYCQQYNLYSRTFGQGTKVEIK
modifications: Synthetic antibody
B2: #1: fully human anti-LILRB3 blocking IgG, epitope bin 3; B3-1 VH SEQ ID NO: 341, VL SEQ ID NO: 395 (antibody, V domains shown)
VH: EVQLVESGGGVVQPGRSLRLSCAASGFTFSSYGMHWVRQAPGKGLEWVAFIRYDGSNKYYADSVKGRFTISRDNSKNTLYLQMNSLRAEDTAVYYCAKAGFSGWYYYGMDVWGQGTMVTVSS
VL: DIVMTQSPSSLSASVGDRLTITCRASQSISTYLNWYQQKPGKAPKLLIYGASSLQSGVPSRFSGSGSGTDFTLTISSLQPEDFATYFCQQSYGLPLTFGGGTKVDIK
modifications: Synthetic antibody
B3: anti-LILRB3 #6: anti-LILRB3 antibody which cannot inhibit LILRB3 signaling; B3-6 VH SEQ ID NO: 345, VL SEQ ID NO: 399 (antibody, V domains shown)
VH: QVQLQQSGPGLVKPSQTLSLTCAISGDSVSSNSAAWNWIRQSPSRGLEWLGRTYYRSKWYNNYAVSVKSRITINPDTSKNQFSLQLNSVTPEDTAVYYCARALAGIDGFDVWGQGTTVSVSS
VL: AIQLTQSPSSLSASVGDRITITCRASQSISKYLNWYQQKPGEAPKLLIYAASSLQSGVPSRFSGSGSGTDFTLTISSLQPEDFATYYCQEKDNFGQGTKLEIK
modifications: Synthetic antibody

Key:
[1] = test system: MLL-AF9 AML cells; test: CFU assay of mouse MLL-AF9 AML cells; assay type: cell-based; details: for colony formation by MLL-AF9 cells: screen of the high-affinity IgGs
Excerpt: (§1) FIGS. 7A-N. Blocking anti-LILRB3 antibody prevents monocytic AML development. (FIG. 7A) Epitope binning of 30 high-affinity IgGs. (FIG. 7B) CFU assay of mouse MLL-AF9 AML cells in the presence of above IgGs (n=3 independent experiments). (FIG. 7C) Binding affinities of the two IgGs from bin #3. (FIG. 7D) Upper: Schematic of treatment. Lower: Percentages of GFP^+ MLL-AF9 mouse AIL cells in peripheral blood (PB), bone marrow (BM), spleen (SPL), and liver (LV) of mice transplanted with AML cells expressing B3-FL or B3delICD and injected with IgG or anti-LILRB3 #1 N297A (n=3 independent mice). (FIG. 7E) Overall survival of mice transplanted with indicated AML cells as above. (FIG. 7F) CFU assay of MLL-AF9 mouse AML cells expressing B3-FL or B3delICD in the presence of IgG or anti-LILRB3 #1 N297A (n=3 independent experiments) (FIG. 7G) Upper: Schematic of treatment. Recipient mice were injected with mouse IgG or anti-mCD8 to deplete CD8 T cells. Lower: Percentages of GFP^+ MLL-AF9 mouse AML cells in peripheral blood (PB), bone marrow (BM), spleen (SPL), and liver (LV) of mice transplanted with AML cells expressing B3-FL or B3delICD and injected with IgG or anti-LILRB3 #1 LALAPG (n=4 mice). (FIG. 7H) Survival of mice as in panel h (n=4 independent mice). (FIG. 7I) Upper: Schematic of treatment. Lower: Whole-body images of NSG mice transplanted with luciferase-expressing THP-1 cells and treated with IgG or anti-LILRB3 #1 N297A (#1NA). (FIG. 7J) Overall survival of the mice shown in panel h (n=3 independent mice). (FIG. 7K) Upper: Schematic of treatment. Lower: Whole-body images of NSG mice transplanted with luciferase-expressing Molm13 cells, injected with activated T cells, and treated with IgG or #1NA. (FIG. 7L) Luciferase signaling as a function of time in mice treated as described in panel k. (FIG. 7M) Overall survival of mice treated as described in panel k (n=3 independent mice). (FIG. 7N) Analyses of T cells in peripheral blood of mice treated as described in panel 1 at 22 days after Molm13 AML cell transplantation. Upper: Flow cytometry analyses. Lower: Plot of T cell percentages (n=3 independent mice). The data are presented as mean±s.e.m, and p values were calculated by two-tailed t-test except for FIG. 7E, FIG. 7H, FIG. 7J and FIG. 7M by log-rank test.
FIGS. S6A-J. Development of anti-LILRB3 blocking antibodies for suppressing AML development. (FIG. S6a) Upper: Flow chart of strategy for development of fully humanized antibodies against LILRB3. Lower: The identified antibodies were tested in the LILRB3 chimeric receptor reporter cell assay. (FIG. S6b) ELISA results for LILRB3 binders. (FIG. S6c) EC50 values of the anti-LILRB3 antibodies based on ELISA. (FIG. S6d) Affinities of antibodies #32, #33, #67, and #45 to LILRB3 as determined by Octet. (FIG. S6e) Cross-reactivity of the anti-LILRB3 antibodies with LILRAs evaluated with LILRA binding analyses. (FIG. S6f) Cross-reactivity of the anti-LILRB3 antibodies with other LILRBs evaluated with LILRB binding analyses. (FIG. S6g) Interaction with TRAF2 contributes to the effect of LILRB3 on AML development. […] (FIG. S6j) NF-κB signaling target gene expression (measured by qPCR) in THP-1 cells from BM of xenografted NSG mice treated with anti-LILRB3 #1NA or IgG (n=3 individual samples). […]

[2] = biological target: T1, LILRB3 (Homo sapiens, UniProt O75022); test: Octet-based epitope binning assay; assay type: binding; details: Octet sandwich binning
Experimental: (§2) Affinity measurement and epitope binning: Affinity measurement and epitope binning were done as described previously (Gui et al., 2019). Briefly, antibody affinity was analyzed with the Octet RED96 instrument. Antibody ([…]) was loaded onto the protein A biosensors then exposed to a series of concentrations of recombinant LILRB3 (0.1-200 nmol/L), and background subtraction was used to correct for sensor drift. ForteBio's data analysis software was used to extract association and dissociation rates assuming a 1:1 binding model. The Kd was calculated as the ratio koff/kon. Epitope binning of anti-LILRB3 rabbit antibodies was performed with an Octet RED96 instrument using a classical sandwich epitope binning assay. In these epitope binning assays, primary antibodies (40 μg/ml) were loaded onto protein A biosensors, and remaining Fc-binding sites on the sensor were blocked with a human non-targeting IgG (200 μg/ml). The sensors were then exposed to the 1 μM LILRB3 diluted in 1× kinetics buffer, followed by the secondary antibodies (40 μg/ml). Raw data were processed using ForteBio's Data Analysis Software 7.0. Antibody pairs were assessed for competitive binding. […]

[3] = test system: LILRAs and other LILRBs; test: Cross-reactivity with LILRAs and other LILRBs (binding analyses); parameters: species or system human; details: versus LILRAs and other LILRBs
Experimental: FIGS. S6A-J. Development of anti-LILRB3 blocking antibodies for suppressing AML development. (FIG. S6a) Upper: Flow chart of strategy for development of fully humanized antibodies against LILRB3. Lower: The identified antibodies were tested in the LILRB3 chimeric receptor reporter cell assay. (FIG. S6b) ELISA results for LILRB3 binders. (FIG. S6c) EC50 values of the anti-LILRB3 antibodies based on ELISA. (FIG. S6d) Affinities of antibodies #32, #33, #67, and #45 to LILRB3 as determined by Octet. (FIG. S6e) Cross-reactivity of the anti-LILRB3 antibodies with LILRAs evaluated with LILRA binding analyses. (FIG. S6f) Cross-reactivity of the anti-LILRB3 antibodies with other LILRBs evaluated with LILRB binding analyses. (FIG. S6g) Interaction with TRAF2 contributes to the effect of LILRB3 on AML development. CFU assay of MLL-AF9 AML cells expressing wild-type LILRB3 or mutant LILRB3 with mutations disrupting TRAF2 binding (AAA, QEE509-511AAA) or disrupting SHP-1/2 interactions (Y596/626F) in the presence of control or anti-LILRB3 antibodies (n=3 wells). […] (FIG. S6j) NF-κB signaling target gene expression (measured by qPCR) in THP-1 cells from BM of xenografted NSG mice treated with anti-LILRB3 #1NA or IgG (n=3 individual samples). The data are presented as mean±s.e.m, and p values were calculated by two-tailed t-test except for FIG. S6i by log-rank test.

[4] = biological target: T1, LILRB3; test: Affinity measurement with Octet RED96; assay type: binding; details: compared between the two IgGs of bin 3
Experimental: as §2

[5] = test system: MLL-AF9 AML cells expressing B3-FL or B3delICD; test: Immuno-competent mice transplanted with MLL-AF9 AML cells expressing B3-FL or B3delICD; assay type: in vivo, mouse; details: versus IgG
Excerpt: as §1, with “(FIG. 7N) Analyses of T cells in peripheral blood of mice treated as described in panel 1 at 22 days after Molm13 AML cell transplantation. Upper: Flow cytometry analyses. Lower: Plot of T cell percentages (n=3 independent mice).” left out, “test. […]” for “test.”

Molecule | colony formation by MLL-AF9 cells [1] | LILRB3 epitope bin [2] | specificity to LILRB3 [3] | binding affinity [4] | inhibition of LILRB3 signaling ([1]; FIG. 7b) | progress of AML with B3-FL and with B3del ICD [5]
B1 | blocked colony formation by MLL-AF9 cells | third bin | specific to LILRB3 | – | – | –
B2 | blocked colony formation by MLL-AF9 cells | third bin | specific to LILRB3 | higher affinity than #26 | – | –
B3 | – | – | – | – | cannot inhibit LILRB3 signaling | suppresses the progresses of both AML with B3-FL and AML with B3del ICD with similar efficacies
